Target: IL-2Rαβ (UniProt P01589)
Test: in vitro binding affinity against IL-2 as a standard (Example 2: SPR, Biacore T-100, receptor-Fc captured, EC50 of RU against concentration)

Chain of UniProt P01589 (P01589 22-240 limits assumed): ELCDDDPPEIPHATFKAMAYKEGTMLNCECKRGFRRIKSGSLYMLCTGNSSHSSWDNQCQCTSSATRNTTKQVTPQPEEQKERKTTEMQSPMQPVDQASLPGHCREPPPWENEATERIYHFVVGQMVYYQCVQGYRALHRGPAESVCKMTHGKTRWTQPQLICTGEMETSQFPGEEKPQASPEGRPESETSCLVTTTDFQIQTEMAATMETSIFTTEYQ

- fold decrease in affinity relative to IL-2: 60 fold
Substance: RSLAIL-2 (multiPEGylated recombinant human IL-2 with the aldesleukin sequence; composition of primarily 4-mers, 5-mers and 6-mers of releasably attached mPEG2-C2-fmoc-20kD) (from UniProt P60568 22-153) (ligand)
